Laboratory results as given in the DeepSol protein solubility set.

Experiment: soluble on expression in E. coli; label from the status in PepcDB or PDB records

Row | Sequence | soluble on expression in E. coli
1 | MSLSISEKPLSELLRPKDFEDFVGQDHIFGNKGILRRTLKTGNMFSSILYGPPGSGKTSVFSLLKRYFNGEVVYLSSTVHGVSEIKNVLKRGEQLRKYGKKLLLFLDEIHRLNKNQQMVLVSHVERGDIVLVATTTENPSFVIVPALLSRCRILYFKKLSDEDLMKILKKATEVLNIDLEESVEKAIVRHSEGDARKLLNTLEIVHQAFKNKRVTLEDLETLLGNVSGYTKESHYDFASAFIKSMRGSDPNAAVYYLVKMIEMGEDPRFIARRMIIFASEDVGLADPNALHIAVSTSIAVEHVGLPECLMNLVECAVYLSLAPKSNSVYLAMKKVQELPVEDVPLFLRNPVTEEMKKRGYGEGYLYPHDFGGFVKTNYLPEKLKNEVIFQPKRVGFEEELFERLRKLWPEKYGGESMAEVRKELEYKGKKIRIVKGDITREEVDAIVNAANEYLKHGGGVAGAIVRAGGSVIQEESDRIVQERGRVPTGEAVVTSAGKLKAKYVIHTVGPVWRGGSHGEDELLYKAVYNALLRAHELKLKSISMPAISTGIFGFPKERAVGIFSKAIRDFIDQHPDTTLEEIRICNIDEETTKIFEEKFSEGHHHHHH | soluble
2 | MGSDKIHHHHHHMDAKTIDNRIRRAFNGIRQAFRGKIARVKAAGGVQQIQVEGLEGETVQDLEHAENFGFTSNPPAGSDCVVVPLGGKTSHGIIVTTTNGAYRITGLAEGETAVYNADGAKMVLKKGRIIEIDCETLNIKAPGGVNIDAPNVGCTAQITAEGQINGNGGMAVKGGSGTSFTGNVQMVGDLDTTGKLTNNGKNVGSDHKHNGDSGGTTSDPL | not soluble
3 | MKLSFSLPPKSKSRVSLNSDRKDCIGAGNLKQFVTEFDPSETLTDSKPKYVIPPIEDRRRSYRSIDLPLPSASGLQFEAEIPSGDGSDNNITYGLNLRQKVENVEKPEPVEKMLLKSMRTDLESLPDAPEKEDFESFPVDGFGEALLAGYGWKPGQGIGLKAKEDVKIVEYEKWSGNEGFGFGKSDKAMKMIDNKLVGSGSHEEVKVGINKIENMEKDRVVRKRNRETEGESRTEVKACKQNYRGQTRETREKTSWLRSHIKVRIISKDVKGGRLYLKKAVVTDVVGPTSCDIAMDETQELVQGIDQELLETALPRRGGSVLVLSGRHKGVYGRLVEKDLDKETGVVCDADSQEMLHVKLDQVAEYIGDPADIGY | soluble
4 | MGSDKIHHHHHHNSISDSEVHVMVKTFEGHHVNRLEVLKNTWASDVSRIEYCSDKEDPAIPTINLGVDNTDRGHCAKTWEIFRRFLGSSGNGAKWLVVADDDTLMNFKRLKQMLELYDSGDKIIIGERYGYGFSLNGDSGYDYPTGGSGMIFTRSAVESLLAQCPSCIANTDPDDMTIGICALTAGIPIVHESRLHQARPLDYAPEYIKYPISFHKFTDIDPISVYYEYLVELEEYN | not soluble
5 | MGSDKIHHHHHHMSDKTDSSQGKSEPESSENNNDKTSVDNSVKSPLTIAISKNTKILALFAIACTLAVSLVSELTKDRIKVQEQQQLLRTLHSIIEPSRYDNDIANDCIMMSAPELGSNKVKTAYIARKAGQVVAVAITSTAPQGYNGNIDFIMAINNDGSVSGVRVLKHQETPGLGDKIEIRKSDWIKSFTGKRILSEDDSRWAVTKDNGMFDQFTGATITPRAVVKGVKSTLNYFNQHKGSLIPRPNACGEALSTTKSISPISEAANEQ | not soluble
6 | MEAKEKKYGEIEIEKAQLEAWPNPNPERDYMIEITFPEFTCLCPRSGYPDFATIKIRYIPDKYIVELKSLKLWLNKFRNRYISHEAATNEIYQALYDLLKPRFLEVVGDFHPRGNVHTVVRVRSDENYGAAAAAALEHHHHHH | soluble
7 | MNKPVAIFLMGPTASGKTDLAIALRKQLPVEVISVDSALIYKEMDIGTAKPTAAELAQAPHRLIDILDPKESYSAMHFHADALHAMADITASGRIPLLVGGTMLYYKALLEGLSPLPSANEHIRTEIEAHANQYGWASLHQQLTQIDPLAASRINANDSQRINRALEVFYLTGKNLTELTAQQGECLPYQVLQFAIAPQERAVLHQRIEQRFHKMMELGFLTEVEKLYARGDLHPDLPAIRCVGYRQMWQHLAGEISLDEAIYKGICATRQLAKRQLTWLRGWRSEITWLDSLDPTSSQEKMIQNLEQNFIKLLEHHHHHH | soluble
8 | MGSDKIHHHHHHMSAFNAVQVGRRVLAVEADALRVLADSLGEAFANAVETIFNAKGRVVCTGMGKSGHVARKIAATLASTGTQAMFVHPAEASHGDLGMIGPDDVVLALSKSGAGRELADTLAYAKRFSIPLIAMTAVADSPLGQAGDILLLLPDAPEGTAEVNAPTTSTTLQIALGDAIAVALLERRGFTASDFRVFHPGGKLGAMLRTVGDLMHGADELPLVAADAAMPDALLVMSEKRFGAVGVVDNAGHLAGLITDGDLRRHMDGLLTHTAGEVMTHAPLTIGPGALAAEALKVMNERRITVLFVVERERPVGILHVHDLLRAGVI | not soluble
9 | MSLNQPLLSVNNLTHLYAPGKGFSDVSFDLWPGEVLGIVGESGSGKTTLLKSISARLTPQQGEIHYENRSLYAMSEADRRRLLRTEWGVVHQHPLDGLRRQVSAGGNIGERLMATGARHYGDIRATAQKWLEEVEIPANRIDDLPTTFSGGMQQRLQIARNLVTHPKLVFMDEPTGGLDVSVQARLLDLLRGLVVELNLAVVIVTHDLGVARLLADRLLVMKQGQVVESGLTDRVLDDPHHPYTQLLVSSVLEGHHHHHH | soluble
10 | MGPTQETYTIVRYQSGTFSKQLDEIVTESPITIKLNGEEYVTVVCTPNYIEDMVIGFLISEGIISSYNDVEELWVQKDNGIVHVKSSKVNPLYQTLYNKRYVTSCCGKGRQGFIFVNDAAKAKDLHDIHVKITPEECFYLMNTLQQSSTTFRQTGGVHNTALCDRNKILLSRMDIGRHNALDKIYGHCLRNDISVKGKIIAFSGRISSEILLKVSKIGCEIVLSKSAPTKLALQLAHDLGITVVGFIRNESCNIYTHPHRIDGYQSNN | not soluble
11 | MKKKLVGVECLNEYICQSSNKLYADSSVILTPGARDELSRRGVTVVYGPRPESGEAPAACPPGCTCPACTAAKADSGLEQLLFAVAAMLKTEYGITDPEELKNLSCQALRTIKANL | not soluble
12 | MGSDKIHHHHHHMSTPIPSLADAPPVLCVHGIGKTYAEPVLADVSLELRAGEVLALTGENGAGKSTLSKIVGGLVTPTTGSMTLGGAAYAPASRKDAEALGVRMVMQELNLLPTLSVAENLFLNRLPRNLVGWIDRARLRENARHAMAQVGLDAIDPDTLVGTLGIGHQQMVEIARNLIGDCRVLILDEPTAMLTAREVDLLFEQVERLKAHGVALVYISHRLEELKRIARRAAVLRDGRLVHVDEMANLSTDRLVTLMVGRDIGDRIDLGERRIGEVAFKVSGMTREPVVRDVSFEVRAGEIFGISGLIGAGRTELMRLIYGADHADAGSVSLGRGGAAPEPVTIASPSDAVQHGIALITEDRKGEGLLLTQPIAANISLGHLRAVSNKGVVDGRREAALARRQIDAMRIRSAGPSQPVSELSGGNQQKVVIGRWLARDCTVLLFDEPTRGIDVGAKFDIYALMGALAREGRALVVVSSDLRELMAICDRIGVMSAGRMTGLFERGNWTQDALLAAAFAGYAKRDDLLHEPIEPDAKAPDESKLVEY | not soluble
13 | MEYKKILIRLLIAFAVLFSADFTYQSVEQTHQSHAAVNYYSKNQCTWWAFKRRAQVGKPVSNRWGNAKNWYYNARKSKYATGRTPRKFAVMQSTAGYYGHVAVVEQVYKNGSIKVSEYNFYRPLKYNTRVLSKKAARNFNYIYLEHHHHHH | not soluble
14 | MVRIALEGELFKGVTSLLDQADRTAGAEIFSALYELNDPRGLEVRLQAHDHGDPKIRNVVLGNERGKKNGVEVDDADSDNRHNLHAAGVNVTDRILPDGSIPHNKFMVLEENGKPTKVLTGSTNWTSTGLATQTNNTLIIKSPLVAARYKEYWTSVKHFSELGADAPKKLQDPLEHHHHHH | not soluble
15 | MKFTETSLKLNPLTEITFFLTFGAKTMSNQWNSGIHDRKLKEEICEIGRRVYNKGFAAANDGNISIRVGENEVLCSPTMICKGFMKPDDICAVDLDGNQIAGTRKRTSEILLHLAIMKERPDVKAVVHCHPPHATAFAVAREPIPQCVLPEVEVFMGEVPMAPYETPGGQKFADTVVPFLKGGTNTIILTGHGTVTFGKSLEDAYWKTEILDAYCNILLLSKQLGRVTYFTENETRELLDLKKKLGFDDPRFHVEDCDLCGNSAFRDGYKEGIPQQKSFEPAPSYPGYLSKPSTQATPATNNGDSDQLIKAITDQVMSALGK | not soluble
16 | MSLTLPDFRLIRLLPLASLVLTACTLPGHKGPGKSPDSPQWRQHQQEVRHLNQYQTRGAFAYISDDQKVYARFFWQQTGQDRYRLLLTNPLGSTELELNAQPGNVQLVDNKGQRYTADDAEEMIGKLTGMPIPLNSLRQWILGLPGDATDYKLDDQYRLSEVNYRQDGKNWKVVYGGYDSKTQPAMPANMELSDGSQRIKLKMDNWIVKEGGSHHHHHH | soluble
17 | MKIIYCITKADNGGAQTHLIQLANHFCVHNDVYVIVGNHGPMIEQLDARVNVIIIEHLVGPIDFKQDILAVKVLAQLFSKIKPDVIHLHSSKAGTVGRIAKFISKSKDTRIVFTAHGWAFTEGVKPAKKFLYLVIEKLMSLITDSIICVSDFDKQLALKYRFNRLKLTTIHNGIADVPAVKQTLKSQSHNNIGEVVGMLPNKQDLQINAPTKHQFVMIARFAYPKLPQNLIAAIEILKLHNSNHAHFTFIGDGPTLNDCQQQVVQAGLENDVTFLGNVINASHLLSQYDTFILISKHEGLPISIIEAMATGLPVIASHVGGISELVADNGICMMNNQPETIAKVLEKYLIDSDYIKMSNQSRKRYLECFTEEKMIKEVEDVYNGKSTQ | not soluble
18 | MGSDKIHHHHHHMTLKITKSDEVIEVKNLCVTIYSQPGLGKTSLAFTASRPLLLDFDKGAHRAVDRKDVVQVEDWRDVAGISAGDLAAYDTIVIDTVGKALDTLSADIIRANSKLSYGGALNQQGWGQLGVRFSAFLKLLRSFGKDVVLISHMDEKADGDAIKERLKISGGSKDLVLTDSDVIARISIYNRERHLIFSPTETSFGKDPANIGAMPIPEASAETYATCLSDIITQIKEGMNALSEEQVQRKAEIDWFATKLPEMTSAEEINGVLGRAKKAGKDIQKMVVARAKELGFDFDPEAREYVDPSAALADELDDEIPEFDDADEPESPAMAAE | not soluble
19 | MAGDPMKKTILLTMTTLTLFSMSPNSAQAYTNDSKTLEEAKKAHPNAQFKVNKDTGAYTYTYDKNNTPNNNHQNQSRTNDNHQHANQRDLNNNQYHSSLSGQYTHINDAIDSHTPPQTSPSNPLTPAIPNVEDNDDELNNAFSKDNKGLITGIDLDELYDELQIAEFNDKAKTADGKPLALGNGKIIDQPLITSKNNLYTAGQCTWYVFDKRAKDGHTISTFWGDAKNWAGQASSNGFKVDRHPTRGSILQTVNGPFGHVAYVEKVNIDGSILISEMNWIGEYIVSSRTISASEVSSYNYIHLEHHHHHH | not soluble
20 | ETELAFLYERDIYRLLAECDNSRNPDLGLIVRICLATGARWSEAETLTQSQVMPYKITFTNTKSKKNRTVPISDELFDMLPKKRGRLFNDAYESFENAVLRAEIELPKGQLTHVLRHTFASHFMMNGGNILVLKEILGHSTIEMTMRYAHFAPSHLESAVKFNPLSNPAQ | soluble
21 | MEDFGRQRPYGDGGMQIQPYHGNQGGDFRSYSASYGTRENNIYDVKKEKSIARSKSWGITDPELQRKKRVASYKMYGVEGKVKGSFRNSFRWLKQRYTQVVYGWW | not soluble
22 | MLLDKLSRPLKVLRISLTDRCNLRCNFCMPPGKEYNFLPKRQLLTPEEIEEYVKIFAKLGVEKVRLTGGEPLLREDLEEIIQRISKVEGIKDIALTTNGVFLKERLKALKEAGLKRITVSVHSLNPEKNQKLVNRSVNLGEVFEVIIRAKELGFKVKVNSVIIKGFNDDEILDLARFFKNLGVTLRFIEYMDVGTVNDWDFSKVVSADEILNLMKKEFTFYPLPKRPEDTSMDFIYEDGNKFGIIASVTKPFCRGCNRIRLSADGKLYTCLFSDKGHDLRNAVDKENFIKEVWKDRKDRYSELRRQMKRERKVEMFKVGGLEHHHHHH | not soluble
